Experimental data published in the RNAGym collection of RNA variant scans (doi:10.1021/acssynbio.7b00057).

B1: Pistol ribozyme (parent)
chain: GGGUCGUUGUUCCAUAAUCGCGUGGAUAUGGCACGCAAGUUUCUACCGGGCACCGUAAAUGUCCGACUGGAGCCGUUCGGGCGGCUAUAAACAGACCUCAGGCCCGAAGCGUGGCGGCACCUGCCGCCGGUGGUAAAAAAGAUCGGAAGAGCACACGUCU

Variants of: B1
Assay: aptazyme ON/OFF ratio, guanine; higher = stronger switching; co-transcriptional cleavage with and without guanine

Variant	aptazyme ON/OFF ratio
U8G G9A U11G C12U C13G	1.16
U8G G9A U11G C12U C13A	1.2
U8G G9A U11G C12U C13U	1.24
U8G G9C U10G U11A C12A	1.17
U8G G9C U10G U11A C12G	1.15
U8G G9A U11G C13U	1.04
U8G G9A U11G C13A	1.07
U8G G9A U11G C13G	1.05
U8G G9A U10G U11C	1.05
U8G G9A U10G U11A	1.05
U8G G9A U10G U11G	1.59
U8G G9A U11A C12U C13U	1.27
U8G G9A U11A C12U C13G	1.18
U8G G9A U11A C12U C13A	1.24
U8G G9A U11C C12U	1.07
U8G G9A U11C C12G	1.25
U8G G9A U11C C12A	1.34
U8G G9C U10C U11G C12A	1.07
U8G G9C U10C U11G C12G	1.1
U8G G9C U10C U11G C12U	1.25
U8G G9A U10G U11A C13U	1.14
U8G G9A U10G U11A C13A	1.14
U8G G9A U10G U11A C13G	1.21
U8G G9C C12A C13G	1.03

Variant	aptazyme ON/OFF ratio
U8G G9C C12A C13A	1.04
U8G G9C C12A C13U	1.07
U8G G9C U10G C12U C13G	1.11
U8G G9C U10G C12U C13A	1.08
U8G G9C U10G C12U C13U	1.26
U8G G9C U10G C12A C13U	1.15
U8G G9C U10G C12A C13G	1.09
U8G G9C U10G C12A C13A	1.11
U8G G9C U10A U11C C12G	1.14
U8G G9C U10A U11C C12U	1.04
U8G G9C U10A U11C C12A	1.12
U8G G9C U10C U11A C12G C13U	1.11
U8G G9C U10C U11A C12G C13A	1.02
U8G G9C U10C U11A C12G C13G	1.1
U8G G9A U10G U11A C12G	1.6
U8G G9A U10G U11A C12A	1.34
U8G G9A U10G U11A C12U	1.35
U8G G9C U10A U11A C12U C13G	1.1
U8G G9C U10A U11A C12U C13A	1.14
U8G G9C U10A U11A C12U C13U	1.19
U8G G9A U10C U11G C12G C13A	1.34
U8G G9A U10C U11G C12G C13G	1.42
U8G G9A U10C U11G C12G C13U	1.14
U8G G9C U10G U11A	1.07

Variant	aptazyme ON/OFF ratio
U8G G9C U10A C12U C13U	1.07
U8G G9C U10A C12U C13G	1.1
U8G G9C U10A C12U C13A	1.15
U8G G9A U11C C13A	1.07
U8G G9A U11C C13U	1.06
U8G G9A U11C C13G	1.01
U8G G9A U10G C12U C13G	1.16
U8G G9A U10G C12U C13A	1.32
U8G G9A U10G C12U C13U	1.18
U8G G9C U10A C12U	1.08
U8G G9C U10A C12A	1.23
U8G G9C U10A C12G	1.1
U8G G9C U10G C12G C13A	1.08
U8G G9C U10G C12G C13G	1.08
U8G G9C U10G C12G C13U	1.17
U8G G9A U11A C12G	1.17
U8G G9A U11A C12A	1.33
U8G G9A U11A C12U	1.43
U8G G9C U10C U11C C13G	1.01
U8G G9C U10C U11C C13A	1.06
U8G G9C U10C U11C C13U	1.03
U8G G9C U10G U11A C12A C13A	1.12
U8G G9C U10G U11A C12A C13U	1.11
U8G G9C U10G U11A C12A C13G	1.11

Variant	aptazyme ON/OFF ratio
U8G G9A U11C C12U C13G	1.27
U8G G9A U11C C12U C13U	1.13
U8G G9A U11C C12U C13A	1.25
U8G G9C	1.09
U8G G9C U10C U11C C12G C13G	1.09
U8G G9C U10C U11C C12G C13A	1.11
U8G G9C U10C U11C C12G C13U	1.08
U8G G9A U11A C13A	1.14
U8G G9A U11A C13U	1.23
U8G G9A U11A C13G	1.07
U8G G9A U10G U11C C12A C13G	1.16
U8G G9A U10G U11C C12A C13U	1.18
U8G G9A U10G U11C C12A C13A	1.18
U8G G9A U11G	1.18
U8G G9A U11A	1.59
U8G G9A U11C	1.05
U8G G9A U10C U11C C13U	1.03
U8G G9A U10C U11C C13G	1.03
U8G G9A U10C U11C C13A	0.984
U8G G9C U10A U11G C12A C13G	1.14
U8G G9C U10A U11G C12A C13U	1.16
U8G G9C U10A U11G C12A C13A	1.07
U8G G9A U10G U11A C12U C13G	1.33
U8G G9A U10G U11A C12U C13U	1.47

Variant	aptazyme ON/OFF ratio
U8G G9A U10G U11A C12U C13A	1.34
U8G G9C U10C U11A C12U	1.06
U8G G9C U10C U11A C12G	1.06
U8G G9C U10C U11A C12A	1.05
U8G G9C U10C U11G C12U C13G	1.1
U8G G9C U10C U11G C12U C13A	1.04
U8G G9C U10C U11G C12U C13U	1.07
U8G G9A U10C U11C C12U C13U	1.03
U8G G9A U10C U11C C12U C13A	1.04
U8G G9A U10C U11C C12U C13G	1.04
U8G G9A U11A C12A C13A	1.19
U8G G9A U11A C12A C13U	1.15
U8G G9A U11A C12A C13G	1.25
U8G G9A U10G U11G C12U C13A	1.36
U8G G9A U10G U11G C12U C13U	1.29
U8G G9A U10G U11G C12U C13G	1.46
U8G G9C U10C U11G C12A C13A	1.08
U8G G9C U10C U11G C12A C13G	1.05
U8G G9C U10C U11G C12A C13U	1.04
U8G G9C U10A U11C C12U C13G	1.06
U8G G9C U10A U11C C12U C13A	1.09
U8G G9C U10A U11C C12U C13U	1.02
U8G G9A U10G C12G C13U	1.27
U8G G9A U10G C12G C13A	1.52

Variant	aptazyme ON/OFF ratio
U8G G9A U10G C12G C13G	1.16
U8G G9C U10C U11C C12U C13U	1.04
U8G G9C U10C U11C C12U C13A	1.04
U8G G9C U10C U11C C12U C13G	1.04
U8G G9C U10A	1.13
U8G G9C U10C	1.08
U8G G9C U10G	1.19
U8G G9A U10G U11C C12A	1.19
U8G G9A U10G U11C C12U	1.02
U8G G9A U10G U11C C12G	1.19
U8G G9A U10G C12A C13U	1.45
U8G G9A U10G C12A C13A	1.29
U8G G9A U10G C12A C13G	1.18
U8G G9A U10C U11C C12A C13G	1.12
U8G G9A U10C U11C C12A C13U	1.07
U8G G9A U10C U11C C12A C13A	1.05
U8G G9C U10A U11A C13G	1.04
U8G G9C U10A U11A C13A	1.11
U8G G9C U10A U11A C13U	1.15
U8G G9C U10C U11C C12G	1.06
U8G G9C U10C U11C C12A	1.05
U8G G9C U10C U11C C12U	1.06
U8G G9A U10C U11A C12A C13U	1.16
U8G G9A U10C U11A C12A C13G	1.11

Variant	aptazyme ON/OFF ratio
U8G G9A U10C U11A C12A C13A	1.15
U8G G9C U10C U11A C12U C13U	1.04
U8G G9C U10C U11A C12U C13G	1.02
U8G G9C U10C U11A C12U C13A	1.04
U8G G9A U10G U11C C12G C13G	1.25
U8G G9A U10G U11C C12G C13A	1.27
U8G G9A U10G U11C C12G C13U	1.4
U8G G9C U10A U11A C12A	1.18
U8G G9C U10A U11A C12G	1.16
U8G G9C U10A U11A C12U	1.18
U8G G9A U10G C13G	1.34
U8G G9A U10G C13U	1.58
U8G G9A U10G C13A	0.997
U8G G9A U10C U11A C12G	1.14
U8G G9A U10C U11A C12A	1.22
U8G G9A U10C U11A C12U	1.1
U8G G9A U11C C12A C13A	1.34
U8G G9A U11C C12A C13U	1.3
U8G G9A U11C C12A C13G	1.16
U8G G9A U10C U11G C12A C13A	1.18
U8G G9A U10C U11G C12A C13U	1.16
U8G G9A U10C U11G C12A C13G	1.18
U8G G9A U10G U11G C13U	1.45
